Tested on: N#CCCC#N
Test: purified protein
Assay type: biochemical, uncultured Burkholderiaceae bacterium
Conditions: 50 mM potassium phosphate pH 7.0, 40 °C, 2 mM DTT, 0-975 mM substrate

NitraS-ATII (uncultured Burkholderiaceae bacterium)
Km: 59.4 ± 6.8 mM | kcat: 0.472 s⁻¹

Reference: PMC4751646, “Red Sea Atlantis II brine pool nitrilase with unique thermostability profile and heavy metal tolerance” (BMC Biotechnology, 2016)
